Measurements taken from PMC6954389 (Nucleic Acids Research, 2019).

Target: T1, His6-σ^A_(C170), C-terminal residues 359–528 of σ^A, wildtype (M. tuberculosis, UniProt P9WGI1 359-528)
T1 sequence: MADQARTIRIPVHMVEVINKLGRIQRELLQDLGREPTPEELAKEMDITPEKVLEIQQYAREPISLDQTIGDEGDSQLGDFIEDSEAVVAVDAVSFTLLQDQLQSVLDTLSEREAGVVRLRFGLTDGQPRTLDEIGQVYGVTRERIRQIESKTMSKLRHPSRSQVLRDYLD
Test: pull-down

B1: tagless wildtype WhiB1, purified (from His6-SUMO-WhiB1) (natural protein)
chain: MDWRHKAVCRDEDPELFFPVGNSGPALAQIADAKLVCNRCPVTTECLSWALNTGQDSGVWGGMSEDERRALKRRNARTKARTGV
- binding result: binds
